Patent US20180194839A1 (Novartis, published 2018)
Substitutions are numbered along the chain they refer to. In names and notes the source's numbering stands.

Assays:
[1] = target: T1, recombinant human IL-17A (SEQ ID NO: 76) (human, UniProt Q16552 24-155, limits assumed); assay: cell-based or functional assay
T1 sequence: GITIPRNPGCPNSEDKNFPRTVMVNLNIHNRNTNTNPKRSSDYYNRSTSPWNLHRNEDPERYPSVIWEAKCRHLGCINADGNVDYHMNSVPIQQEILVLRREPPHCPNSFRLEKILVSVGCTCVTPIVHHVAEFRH

[2] = target: T2, recombinant cynomolgus IL-17F (SEQ ID NO: 80) (cynomolgus monkey, UniProt Q96PD4 31-163 (human entry), limits assumed); assay: ELISA, coated antigen
T2 construct: also called cynoIL-17F; cyno IL-17F
T2 chain: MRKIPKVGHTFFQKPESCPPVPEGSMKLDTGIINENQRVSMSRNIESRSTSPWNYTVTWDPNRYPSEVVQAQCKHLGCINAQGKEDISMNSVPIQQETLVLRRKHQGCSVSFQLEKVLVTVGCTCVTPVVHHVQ

[3] = target: T3, recombinant human IL-17F (SEQ ID NO: 77) (human, UniProt Q96PD4 31-163); assay: ELISA, coated antigen
T3 construct: homodimer; also called huIL-17F; rhuIL-17F
T3 sequence: T2 chain with E23G, T30I, K74R, H75N, L101V, V130I

[4] = target: T4, recombinant human IL-17A/F heterodimer (human, UniProt Q16552 24-155; Q96PD4 31-163, limits assumed); assay: competition ELISA: huIL-17A/F pre-incubated with antibody, binding to coated huIL-17RA
T4 construct: heterodimer of an IL-17A subunit and an IL-17F subunit; also called huIL-17A/F; rhuIL-17A/F
T4 sequence (looked up) 1: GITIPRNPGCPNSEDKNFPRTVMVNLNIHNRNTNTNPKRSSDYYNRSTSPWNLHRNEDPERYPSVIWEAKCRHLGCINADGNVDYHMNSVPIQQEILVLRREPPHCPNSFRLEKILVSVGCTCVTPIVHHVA
T4 sequence (looked up) 2: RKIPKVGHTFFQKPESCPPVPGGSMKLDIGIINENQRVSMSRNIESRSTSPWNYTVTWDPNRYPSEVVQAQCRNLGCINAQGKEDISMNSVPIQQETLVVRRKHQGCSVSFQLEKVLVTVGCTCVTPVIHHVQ

[5] = target: T5, recombinant human IL-4 (R&D Systems Cat#204-IL/CF) (human, UniProt P05112 25-153); assay: ELISA, coated cytokine;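 note: antibodies incubated 3 h at room temperature on cytokine-coated plates, binding read out with alkaline phosphatase-conjugated anti-species IgG secondary antibodies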
T5 construct: also called huIL-4
T5 sequence (looked up): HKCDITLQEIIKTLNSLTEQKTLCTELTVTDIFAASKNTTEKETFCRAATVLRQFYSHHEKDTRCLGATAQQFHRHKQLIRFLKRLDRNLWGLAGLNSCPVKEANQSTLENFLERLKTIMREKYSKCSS

[6] = target: T6, recombinant human IFNγ (Roche) (human, UniProt P01579 24-166, limits assumed); assay: ELISA, coated cytokine;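 note: antibodies incubated 3 h at room temperature on cytokine-coated plates, binding read out with alkaline phosphatase-conjugated anti-species IgG secondary antibodies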
T6 construct: also called huIFNγ
T6 sequence (looked up): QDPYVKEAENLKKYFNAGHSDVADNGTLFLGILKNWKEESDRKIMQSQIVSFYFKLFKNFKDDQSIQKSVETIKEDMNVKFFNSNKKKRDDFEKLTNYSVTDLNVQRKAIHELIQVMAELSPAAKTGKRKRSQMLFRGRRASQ

[7] = target: T7, recombinant mouse IL-1β (R&D Systems Cat#401-ML) (mouse, UniProt P10749 118-269); assay: ELISA, coated cytokine;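 note: antibodies incubated 3 h at room temperature on cytokine-coated plates, binding read out with alkaline phosphatase-conjugated anti-species IgG secondary antibodies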
T7 construct: also called mIL-1β
T7 sequence (looked up): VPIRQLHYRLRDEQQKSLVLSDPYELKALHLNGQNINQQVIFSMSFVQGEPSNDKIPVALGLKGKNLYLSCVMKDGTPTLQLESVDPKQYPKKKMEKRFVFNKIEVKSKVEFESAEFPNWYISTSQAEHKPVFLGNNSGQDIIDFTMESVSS

[8] = target: T4, recombinant human IL-17A/F heterodimer; assay: SPR (Biacore), captured antibody, antigen as analyte
[9] = target: T8, recombinant mouse IL-17A/F (R&D Systems Cat#5390-IL) (mouse, UniProt Q62386 26-158; Q7TNI7 29-161, limits assumed); assay: as above
T8 construct: bought heterodimer; also called mIL-17A/F; rmIL-17A/F
T8 sequence (looked up) 1: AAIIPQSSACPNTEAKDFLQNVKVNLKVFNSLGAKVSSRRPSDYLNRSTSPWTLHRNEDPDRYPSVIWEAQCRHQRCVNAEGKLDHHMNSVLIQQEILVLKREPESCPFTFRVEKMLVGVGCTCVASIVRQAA
T8 sequence (looked up) 2: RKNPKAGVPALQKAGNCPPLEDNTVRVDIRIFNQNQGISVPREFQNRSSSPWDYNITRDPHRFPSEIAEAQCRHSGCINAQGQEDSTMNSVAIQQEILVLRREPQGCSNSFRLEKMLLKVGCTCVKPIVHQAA

[10] = target: T9, recombinant rat IL-17A (SEQ ID NO: 85) (rat, UniProt Q61453 18-150); assay: as above
T9 construct: also called rratIL-17A; rIL-17A
T9 sequence: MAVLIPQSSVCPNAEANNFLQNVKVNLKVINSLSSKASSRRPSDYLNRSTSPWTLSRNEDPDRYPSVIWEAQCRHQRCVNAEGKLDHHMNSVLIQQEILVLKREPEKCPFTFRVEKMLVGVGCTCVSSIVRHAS

[11] = target: T10, recombinant mouse IL-17A (SEQ ID NO: 83) (mouse, UniProt Q62386 26-158); assay: as above
T10 construct: also called mIL-17A; rmIL-17A
T10 sequence: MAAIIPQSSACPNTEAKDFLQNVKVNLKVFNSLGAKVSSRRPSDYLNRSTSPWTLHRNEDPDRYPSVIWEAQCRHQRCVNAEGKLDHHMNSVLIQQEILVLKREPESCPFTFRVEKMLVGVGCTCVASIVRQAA

B1: XAB4 (antibody, human IgG1, kappa, V domains shown)
VH: EVQLVESGGDLVQPGGSLRLSCAASGFTFSSYWMSWVRQAPGKGLEWVANIKQDGSEKYYVDSVKGRFTISRDNAKNSLYLQMNSLRAEDTAVYYCARDRGSLYYWGQGTLVTVSS
VL: AIQLTQSPSSLSASVGDRVTITCRPSQGINWELAWYQQKPGKAPKLLIYDASSLEQGVPSRFSGSGSGTDFTLTISSLQPEDFATYYCQQFNSYPLTFGGGTKVEIKR
notes: also called MB435 N56Q
[1]
  IC50, huGROα secretion by BJ cells; stimulus rhuIL-17A (0.5 nM): 0.44 nM
[2]
  binding result: no binding (tested: 1 µg/ml)
[3]
  binding result: no binding (tested: 1 µg/ml)
[4]
  IC50: 154 nM
[5]
  binding result: no binding (tested: 10 µg/ml)
[6]
  binding result: no binding (tested: 10 µg/ml)
[7]
  binding result: no binding (tested: 10 µg/ml)

B2: XAB1 (antibody, human IgG1, kappa, V domains shown)
VH: B1 VH
VL: B1 VL with N30I, W31S, E32A, Q56N
notes: human IgG1/kappa monoclonal antibody; also called parental XAB1; XAB1 IgG
[1]
  IC50, huGROα secretion by BJ cells; stimulus rhuIL-17A (0.5 nM): 1.39 nM
[4]
  IC50: 301 nM
[5]
  binding result: no binding (tested: 10 µg/ml)
[6]
  binding result: no binding (tested: 10 µg/ml)
[7]
  binding result: no binding (tested: 10 µg/ml)
[8]
  Kd: 1.48 nM
  koff: 0.00134 s⁻¹
[9]
  Kd: 5.09 nM
  koff: 0.000955 s⁻¹
[10]
  Kd: 0.301 nM
  koff: 0.000164 s⁻¹
[11]
  Kd: 0.353 nM
  koff: 0.000143 s⁻¹
